Measurements reported in patent US8697648B2, “Protein agent for diabetes treatment and β cell imaging” (Georgia State University Research Foundation, Inc., priority 2009, dated 2014).

Legend:
[1] = tested on: Diabetic mice (BKS.Cg-Lepr^db/db); assay: Blood glucose lowering in fed diabetic mice (Example 15); type: in vivo
Description: The animals were re-feed for 25 minutes 5 hours after drug administration and 35 minutes before the last time point of blood sample collection. The A Blood Glucose (mg/dl) was determined by calculating the difference between the measured blood glucose levels at any given time point and the initial blood glucose levels. The initial blood glucose levels were measured after feeding for 20 min and before the drug administration (time zero). The error bars represent standard deviations of measurements of eight mice.
The developed protein agent was tested to determine whether it had the in vivo capability of lowering blood glucose in diabetic subjects. Diabetic mice (BKS.Cg-Lepr^db/db, The Jackson Laboratory) were used as test subjects. A group of six animals first fasted for 6 hours. After fasting, the animals were fed for 30 minutes. The protein agent was administered after feeding by intraperitoneal injection at a dose of 25 nmole/kg. The animals were fed again for 30 mins, 5 hrs after agent administration. Blood samples were taken at different time points after administration of the agent. Glucose concentration in the blood samples was measured using a commercially available kit.

[2] = Protein serum stability test in mice serum (SDS-PAGE); type: in vitro ADME; conditions: mice serum 1:1, 37° C., 24 hrs
Description: FIG. 5 is a digital image of a gel analysis of a protein serum stability test. A 16% SDS-PAGE without DTT was used to analysis the protein level after incubation with mice serum for certain time. Lane 1: mice serum only; Lane 2: fusion protein only; Lanes 3-5: fusion protein incubated with 50% serum for 1 hr, 3 hrs, and 24 hrs respectively; Lane 6: PEGylated protein only; Lanes 7-9: PEGylated protein incubated with 50% serum for 1 hr, 3 hrs, and 24 hrs respectively.
The fusion protein and PEGylated protein were incubated with mice serum at a ratio 1:1, in 37° C. for 1 hr, 3 hrs and 24 hrs. Samples were then analyzed by 16% SDS-PAGE.
The fusion protein and PEGylated protein were incubated with mice serum at a 1:1 ratio at 37° C. for 1 hr, 3 hrs, and overnight. SDS-PAGE was then used to analyze the protein stability.

CHO cells = assay: Immunostaining binding analysis, CHO cells (no GLP-1R); type: cell-based; conditions: Cal.GLP 10 μM, calbindin D9k 50 μM, 37° C., 30 mins
Description: (§1) FIG. 10 is a series of digital images showing immunofluorescence staining of CHO or RINm5F cells that were treated by calbindin (50 μM) and Cal.GLP (10 μM). The cells were extensively washed after 30 min treatments under 37° C. in microscopic chamber slides and subsequently fixed. The cells were stained with the calbindin-specific antibody and visualized under confocal microscopy. The light shading represents antibody staining.
(§2) To examine whether the developed protein indeed interacted with GLP-1R, the binding of the fusion protein with two cell lines, RINm5F and CHO cells was examined. It is well known that GLP-1R is expressed in RINm5F but not in CHO cells. Both RINm5F and CHO cells were incubated with fusion protein Cal.GLP (10 μM) or calbindin D9k (50 μM) at 37° C. for 30 mins. After extensive washing, the cells were fixed and subjected to immunostaining analyses using a rabbit polyclonal antibody against parental protein calbindin D9k. […] Similar binding analyses were carried out with RINm5F cells and a […] (αTC1).

diabetic mice [3] = assay: Four week daily treatment, blood glucose and body weight (Example 19); type: in vivo; conditions: 25 nmole/kg i.p. daily for 4 weeks
Description: Agents (indicated in the figures 25 nmole/kg) were administrated by i.p. at daily at the same time 2:00 pm for 4 weeks. The animals were returned to the ages. Blood samples (about […]) were draw daily at 5:00 pm for 4 weeks. Glucose in blood samples was measured. Blood glucose levels were plotted against day. Animal body weight was weighed daily before drawing blood. Average body weight of each group of six mice was plotted against days.
The effects of the developed agent and PEGylated agents on blood glucose lowering in diabetic mice were examined in a four week treatment course. Agents (indicated in the figures at 25 nmole/kg) were administrated by i.p. daily at the same time 2:00 pm for 4 weeks. The animals were returned to the ages. Blood samples (−20 μl) were draw daily at 5:00 pm for 4 weeks. Glucose in blood samples was measured. Blood glucose levels were plotted against day. Animal body weight was weighed daily before drawing blood. Average body weight of each group of six mice was plotted against days.

[4] = NMR and fluorescence spectrum analyses in different pH conditions; type: physicochemical; conditions: pH 3, 5, 7, 9, 10
Description: FIG. 8 is a graph showing the fluorescence spectrum of the protein Cal.GLP (50 μM) at various pH values. The spectrum at each pH was compared to that of completely denatured Cal.GLP in 8M Urea.
(§3) The fusion protein Cal.GLP was incubated with 75% human serum for a time course (up to 48 hrs). The protein was then analyzed by SDS-PAGE and stained by coomassie blue.

[5] = Stability in 75% human serum (SDS-PAGE); type: in vitro ADME; conditions: 48 hour
Description: FIG. 7 is a digital image of an SDS-PAGE analysis of serum stability of the fusion protein Cal.GLP. […] Cal.GLP was incubated with 75% human serum (S+CA) in […] at 37° C. for 1 hour (lane 3), 3 hours (lane 4), and 24 hours (lane 5). The mixture was separated by 16% SDS-PAGE and visualized by coomassie blue staining. Lane 1 is 75% human serum (S) and lane 2 is Cal.GLP only (CA). Lane M is molecular weight markers.
as §3

CD-1 mice = assay: Toxicity in healthy CD-1 mice; type: in vivo; conditions: one or two doses of 100 μl (6 mM), 14 days
Description: One group of mice (7 mice per group) were injected with one dose of 100 μl of the agent (6 mM) and another group of animals were injected with two doses of the agent (100 μl of agent (6 mM)) with 8 hours time interval between the two injections. The animals were returned to their cages for 14 days. Among 14 tested mice, no mouse died. All animals behaved normally (no change in eating habits. No abnormal weight gain or loss. No abnormal appearance on fur).

RINm5F cells = assay: Immunostaining binding analysis, RINm5F cells (GLP-1R expressed); type: cell-based, rat; conditions: Cal.GLP 10 μM, calbindin D9k 50 μM, 37° C., 30 mins
Description: as §1, §2

diabetic mice [6] = assay: Blood glucose and glucose-dependent insulin secretion after co-administration with glucose (Example 16); type: in vivo; conditions: 25 nmole/kg agent with 15 mmole/kg glucose i.p.
Description: FIG. 12 is a pair of graphs showing the changes in Δ blood glucose (Upper panel) and Δ insulin (bottom panel) in a group of 8 diabetic mice at different time points after injection of 15 mmole/kg of glucose with 25 nmole/kg of different agents.
The effects of the developed agent on blood glucose lowering and stimulating of the glucose-dependent insulin secretion in diabetic mice were also examined. The animals first fasted for 6 hours. The protein agent (25 nmole/kg) and glucose (15 mmole/kg) were co-administrated via intraperitoneal injection with a group of eight diabetic mice. The blood glucose and insulin levels were measured at different time points. As controls, the same dose of glucose was administrated alone and co-administrated with the parental protein calbindin in separate groups of diabetic mice.

Stability to boiling = type: physicochemical; conditions: boiling for 10 minutes
Description: This property led to a simplified one ion-exchange column chromatography procedure of protein purification. The bacterial lysate was boiled for 10 minutes. Most bacterial proteins were precipitated due to denaturing by boiling. The fusion protein stayed in supernatant. The protein was then further purified by an ion-exchange column. Approximately 30-50 mg purified fusion protein per liter of bacterial culture were obtained.

αTC1 cells = assay: Immunostaining binding analysis, αTC1 cells; type: cell-based
Description: as §2

B1: Cal.GLP: GLP-1 grafted into human calbindin D9k by replacing a C-terminal helix; SEQ ID NO: 14 (protein)
chain: MSTKKSPEELKRIFEKYAAKEGDPDQLSKDELKLLIQAEFPSLLKGPNTLDDLFQELDKNGHAEGTFTSDVSSYLEGQAAKEFIAWLVKGRG
modifications: Fusion protein Cal.GLP
- blood glucose decrease and effective time compared to exendin-4 ([1]; 25 nmole/kg i.p.): bigger blood glucose decrease and significantly longer effective time
- drop of blood glucose levels ([1]; 25 nmole/kg i.p., 4 hour time course): about 215 mg/dl
- blood glucose levels after re-feed ([1]; 6 hours post administration, one hour after re-feed): minor increase in blood glucose levels
- degradation in mice serum [2]: no degradation
- binding to CHO cells (CHO cells): not CHO cells
- body weight change (diabetic mice [3]): did not result significant weight gain or lose
- lowering and stabilizing the blood glucose (diabetic mice [3]): stronger effects in lowering and stabilizing the blood glucose
- folding in different pH conditions [4]: remained folded in wide ranges of pH conditions
- integrity after incubation with human serum [5]: remained intact
- acute toxicity (CD-1 mice): did not have acute toxicity
- mortality (CD-1 mice; 14 mice): no mouse died
- binding to RINm5F cells (RINm5F cells): bound to RINm5F cells
- blood glucose lowering post glucose and drug administration (diabetic mice [6]): dramatic blood glucose lowering
- duration of increase in insulin and decrease in glucose (diabetic mice [6]): ~2 h
- glucose lowering and duration compared to exendin-4 (diabetic mice [6]): larger glucose lowering in longer duration
- integrity and folding after boiling (Stability to boiling): remained intact and folded
- binding to αTC1 cells (αTC1 cells): not to αTC1 cells
